Measured values as given in publication PMC10928148 (Molecular Therapy, 2024).

B1: COVA2-15 secretory IgA1 (antibody, V domains shown)
VH: QVQLLESGGGLVQPGGSLRLSCAASGFTFSSYAMSWVRQAPGKGLEWASAISGSGGSTYYADSVEGRFTISRDNSKNTLYLQMNSLRAEDTAVYYCAKDTGYCGDDCYIKLIRGGPDYWGQGTLVTVSS
VL: DIVMTQSPLSLPVTLGQPASISCRSSQSLVYSDGNTFLNWFQQRPGQSPRRLIYQVSNRDSGVPDRFSGSGSGTDFTLKISRVEAEDVGVYYCMQGTHWPRTFGQGTKLEIK
B2: COVA2-15 secretory IgA2 (antibody, V domains shown)
VH: B1 VH
VL: B1 VL
B3: COVA2-15 monomeric IgA1 (antibody, V domains shown)
VH: B1 VH
VL: B1 VL
B4: COVA2-15 monomeric IgA2 (antibody, V domains shown)
VH: B1 VH
VL: B1 VL
B5: COVA2-15 IgG (antibody, V domains shown)
VH: B1 VH
VL: B1 VL
B6: COVA2-15 IgG (antibody, V domains shown)
VH: B1 VH
VL: B1 VL
B7: COVA2-15 secretory IgA1 (antibody, V domains shown)
VH: B1 VH
VL: B1 VL
B8: COVA2-15 monomeric IgA2 (antibody, V domains shown)
VH: B1 VH
VL: B1 VL
B9: COVA2-15 monomeric IgA1 (antibody, V domains shown)
VH: B1 VH
VL: B1 VL
B10: COVA2-15 secretory IgA2 (antibody, V domains shown)
VH: B1 VH
VL: B1 VL

These binders were tested against T1, Wuhan-Hu-1 S protein on plant-produced virus-like particles (Severe acute respiratory syndrome …, UniProt P0DTC2) (assay: ELISA). Conditions: both partners purified.
T1 construct: also called Spike protein of the Wuhan variant on VLPs; Wuhan variant
Binder B1 has an EC50 of about 0.01 nM. B2 gave an EC50 of about 0.01 nM. B3 was tested, and the EC50 was about 0.05 nM. B4 was tested, and the EC50 was about 0.05 nM. B5 gave an EC50 of about 0.05 nM.

Each binder was assayed against T2, Wuhan-Hu-1 S protein on plant-produced virus-like particles (Severe acute respiratory syndrome …, UniProt P0DTC2) (assay: ELISA). Conditions: both partners purified.
T2 construct: also called SARS-CoV-2 VLPs (Wuhan variant)
B6 showed an EC50 of 0.032 nM. With B7 the EC50 was 0.01 nM. Binder B8 has an EC50 of 0.149 nM. B9 showed an EC50 of 0.054 nM. B10 gave an EC50 of 0.017 nM.
